Experiment in all cases: purified protein
Substrate in data set [1]: CC(=O)NCCCC[C@H](N)C(=O)O
Conditions: 14C-ACO, 800 nM enzyme; Nα-amino group acetylated; unit μM as printed beside mM for the Nα-acetyl isomer.

Substrate in data set [2]: NCCCC[C@H](N)C(=O)O
Conditions: 50 μM 14C-ACO, 1-50 mM lysine, 800 nM enzyme, pH 8.0, 30 °C; pH 8.0; 30.0 °C.

Substrate in data set [3]: CC(=O)SCCNC(=O)CCNC(=O)[C@H](O)C(C)(C)COP(=O)(O)OP(=O)(O)OC[C@H]1O[C@@H](n2cnc3c(N)ncnc32)[C@H](O)[C@@H]1OP(=O)(O)O
Particulars: 50 mM lysine, 5-50 μM 14C-ACO, 800 nM enzyme, pH 8.0, 30 °C; labelled compound; pH 8.0; 30.0 °C.

B1: HP0935 (Helicobacter pylori 26695) (protein)
chain: MTIKVFSPKYPTELEEFYAERIADNPLGFIQRLDLLPSISGFVQKLREHGGEFFEMREGNKLIGICGLNPINQTEAELCKFHINSAYQSQGLGQKLYESVEKYAFIKGYTKISLHVSKSQIKACNLYQKLGFVHIKEEDCVVELGEETLIFPTLFMEKILS
Consider B1, for which the Km is 26.71 µM in data set [1], 31310 µM in data set [2] and 21.44 µM in data set [3].

By Km is commonly meant the concentration of substrate that gives half-maximal velocity.
